Source: US20030166021A1

Target: c-Myc (human) (UniProt P01106)
Assay: cell-based or functional assay

Chain of c-Myc (human) (P01106 16-454 limits assumed): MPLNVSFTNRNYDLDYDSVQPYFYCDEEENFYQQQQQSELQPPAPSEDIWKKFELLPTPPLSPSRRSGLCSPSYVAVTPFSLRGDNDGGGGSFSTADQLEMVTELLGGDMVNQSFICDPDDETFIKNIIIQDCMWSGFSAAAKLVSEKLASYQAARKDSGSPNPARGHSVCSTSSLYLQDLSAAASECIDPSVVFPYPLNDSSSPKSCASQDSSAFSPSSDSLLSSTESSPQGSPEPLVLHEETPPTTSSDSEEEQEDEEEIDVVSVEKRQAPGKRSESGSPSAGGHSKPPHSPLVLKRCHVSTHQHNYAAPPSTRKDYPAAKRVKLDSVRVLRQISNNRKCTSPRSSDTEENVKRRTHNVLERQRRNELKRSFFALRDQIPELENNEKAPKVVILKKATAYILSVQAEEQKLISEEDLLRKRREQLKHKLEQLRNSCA

Row | focus formation in the Ras cooperation assay (myc + ras, rat embryo fibroblasts) | focus formation in the Ras cooperation assay (MYC + RAS, rat embryo fibroblasts) | fold decrease in focus formation by MYC (MYC + activated RAS, rat embryo fibroblasts) | Substance
1 | 2.4 fold | – | – | ATG99 polypeptide (murine clone #99 ORF with initiator methionine, vector neoCMV-ATG99) (from UniProt O08539 310-565)
2 | – | 7 fold | 6 fold | human Bin1 (Box-dependent Myc-Interacting protein-1), full-length 451 amino acid product of cDNA p99f (from UniProt O00499 9-593)
